Key:
[1] = molecular target: wild-type GLP-1R (UniProt P43220)
[2] = molecular target: Cy3-labeled GLP-1R-T378SphK (UniProt P43220)
[3] = molecular target: GLP-1R-T378SphK (UniProt P43220)

## GLP-1 peptide
[1]
  GLP-1-induced cAMP accumulation in transfected HEK293T cells, pEC50: 10.7
[2]
  GLP-1-induced cAMP accumulation in transfected HEK293T cells, pEC50: 10.4
[3]
  GLP-1-induced cAMP accumulation in transfected HEK293T cells, pEC50: 10.3
